Source: the supplement of paper PMC10065799, “High-throughput profiling of sequence recognition by tyrosine kinases and SH2 domains using bacterial peptide display” (eLife, 2023)

Legend:
c-Src SH2 = assay: SH2 binding enrichment of the phosphorylated peptide, bacterial display (enrichment ratio); higher = better substrate or ligand; peptides without Tyr show the background
Grb2 SH2 = Grb2 SH2 (UniProt P62993); assay: as above
SHP2-C SH2 = assay: as above
FGFR1 = FGFR1 (UniProt P11362); assay: phosphorylation enrichment, bacterial display (enrichment ratio); higher = better substrate or ligand; peptides without Tyr show the background
Fyn = Fyn (UniProt P06241); assay: as above
Fyn, sequence (P06241 whole entry, looked up): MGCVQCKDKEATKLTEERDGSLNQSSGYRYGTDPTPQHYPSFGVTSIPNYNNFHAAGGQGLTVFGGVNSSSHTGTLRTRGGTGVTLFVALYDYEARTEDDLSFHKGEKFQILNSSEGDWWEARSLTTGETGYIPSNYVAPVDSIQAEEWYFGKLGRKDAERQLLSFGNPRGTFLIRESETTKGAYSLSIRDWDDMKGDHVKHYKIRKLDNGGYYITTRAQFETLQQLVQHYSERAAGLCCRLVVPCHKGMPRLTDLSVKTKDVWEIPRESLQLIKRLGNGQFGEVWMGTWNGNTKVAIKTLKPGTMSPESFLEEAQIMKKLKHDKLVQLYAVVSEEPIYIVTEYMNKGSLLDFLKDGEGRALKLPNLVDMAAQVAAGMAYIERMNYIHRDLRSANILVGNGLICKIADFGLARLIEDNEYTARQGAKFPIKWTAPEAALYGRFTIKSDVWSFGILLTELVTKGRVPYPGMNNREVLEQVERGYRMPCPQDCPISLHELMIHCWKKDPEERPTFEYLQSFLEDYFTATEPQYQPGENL

c-Abl (mouse) = assay: as above
Fer (mouse) = assay: as above
Hck = Hck (UniProt P08631); assay: as above
Hck, sequence (P08631 whole entry, looked up): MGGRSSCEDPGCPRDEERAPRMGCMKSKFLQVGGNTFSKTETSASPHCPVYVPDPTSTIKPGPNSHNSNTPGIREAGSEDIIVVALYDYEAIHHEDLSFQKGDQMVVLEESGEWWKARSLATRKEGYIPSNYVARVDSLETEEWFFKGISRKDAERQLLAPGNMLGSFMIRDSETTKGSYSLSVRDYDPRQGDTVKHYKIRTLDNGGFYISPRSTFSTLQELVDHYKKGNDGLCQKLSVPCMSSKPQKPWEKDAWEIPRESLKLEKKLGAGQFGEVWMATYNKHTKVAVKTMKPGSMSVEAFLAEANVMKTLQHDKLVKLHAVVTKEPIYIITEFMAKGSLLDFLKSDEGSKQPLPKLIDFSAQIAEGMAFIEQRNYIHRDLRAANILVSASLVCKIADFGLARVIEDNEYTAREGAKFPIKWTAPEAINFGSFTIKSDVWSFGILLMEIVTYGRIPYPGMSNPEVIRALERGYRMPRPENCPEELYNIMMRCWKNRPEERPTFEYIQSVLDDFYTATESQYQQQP

EPHB1 = EPHB1 (UniProt P54762); assay: as above
EPHB1, sequence (P54762 whole entry, looked up): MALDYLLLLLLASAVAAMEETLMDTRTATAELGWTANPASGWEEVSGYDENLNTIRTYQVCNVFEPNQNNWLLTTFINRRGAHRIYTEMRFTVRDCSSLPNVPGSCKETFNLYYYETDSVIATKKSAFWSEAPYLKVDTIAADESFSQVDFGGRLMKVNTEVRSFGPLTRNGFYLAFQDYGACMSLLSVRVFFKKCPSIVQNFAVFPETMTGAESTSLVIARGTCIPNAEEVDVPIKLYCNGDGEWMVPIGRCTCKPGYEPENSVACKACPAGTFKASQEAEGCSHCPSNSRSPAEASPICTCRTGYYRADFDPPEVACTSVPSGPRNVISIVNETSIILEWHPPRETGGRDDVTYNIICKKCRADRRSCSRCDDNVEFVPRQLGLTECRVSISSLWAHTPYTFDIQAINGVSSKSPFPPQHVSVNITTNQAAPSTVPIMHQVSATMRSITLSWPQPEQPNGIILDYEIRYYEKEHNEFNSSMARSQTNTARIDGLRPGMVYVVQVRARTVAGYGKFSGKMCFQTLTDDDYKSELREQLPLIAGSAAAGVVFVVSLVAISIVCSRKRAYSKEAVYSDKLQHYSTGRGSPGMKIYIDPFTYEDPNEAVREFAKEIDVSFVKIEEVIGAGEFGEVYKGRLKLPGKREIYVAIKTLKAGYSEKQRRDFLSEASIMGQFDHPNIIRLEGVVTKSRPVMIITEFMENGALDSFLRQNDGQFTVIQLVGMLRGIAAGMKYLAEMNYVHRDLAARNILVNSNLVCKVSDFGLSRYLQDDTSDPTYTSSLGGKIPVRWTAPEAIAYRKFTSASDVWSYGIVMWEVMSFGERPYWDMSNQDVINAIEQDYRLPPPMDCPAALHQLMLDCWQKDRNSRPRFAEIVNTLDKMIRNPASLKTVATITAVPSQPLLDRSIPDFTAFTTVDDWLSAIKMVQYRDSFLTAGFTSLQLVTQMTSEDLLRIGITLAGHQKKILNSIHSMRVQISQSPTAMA

Fes = Fes (UniProt P07332); assay: as above
Fes, sequence (P07332 whole entry, looked up): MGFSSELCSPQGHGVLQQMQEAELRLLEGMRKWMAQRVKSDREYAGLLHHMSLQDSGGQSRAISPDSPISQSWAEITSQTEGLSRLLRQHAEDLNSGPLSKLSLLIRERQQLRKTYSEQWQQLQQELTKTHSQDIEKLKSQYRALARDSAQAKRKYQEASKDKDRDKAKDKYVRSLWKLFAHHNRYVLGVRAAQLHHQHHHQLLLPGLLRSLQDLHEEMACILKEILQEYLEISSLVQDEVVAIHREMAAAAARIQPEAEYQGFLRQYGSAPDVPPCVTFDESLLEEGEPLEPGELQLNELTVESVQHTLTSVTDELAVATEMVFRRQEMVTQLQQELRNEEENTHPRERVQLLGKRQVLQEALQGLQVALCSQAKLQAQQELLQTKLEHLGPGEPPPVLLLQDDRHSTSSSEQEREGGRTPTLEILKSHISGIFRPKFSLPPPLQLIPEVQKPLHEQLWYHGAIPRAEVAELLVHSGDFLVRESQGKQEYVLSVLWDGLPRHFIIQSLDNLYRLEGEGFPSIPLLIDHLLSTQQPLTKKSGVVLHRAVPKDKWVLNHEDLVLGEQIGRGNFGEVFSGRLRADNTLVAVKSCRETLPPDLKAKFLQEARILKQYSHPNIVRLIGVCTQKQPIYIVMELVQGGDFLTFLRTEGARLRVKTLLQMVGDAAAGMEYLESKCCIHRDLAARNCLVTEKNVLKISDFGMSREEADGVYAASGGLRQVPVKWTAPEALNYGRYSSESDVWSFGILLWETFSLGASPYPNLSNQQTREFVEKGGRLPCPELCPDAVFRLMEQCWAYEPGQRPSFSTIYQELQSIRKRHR

EPHB2 = EPHB2 (UniProt P29323); assay: as above
EPHB2, sequence (P29323 whole entry, looked up): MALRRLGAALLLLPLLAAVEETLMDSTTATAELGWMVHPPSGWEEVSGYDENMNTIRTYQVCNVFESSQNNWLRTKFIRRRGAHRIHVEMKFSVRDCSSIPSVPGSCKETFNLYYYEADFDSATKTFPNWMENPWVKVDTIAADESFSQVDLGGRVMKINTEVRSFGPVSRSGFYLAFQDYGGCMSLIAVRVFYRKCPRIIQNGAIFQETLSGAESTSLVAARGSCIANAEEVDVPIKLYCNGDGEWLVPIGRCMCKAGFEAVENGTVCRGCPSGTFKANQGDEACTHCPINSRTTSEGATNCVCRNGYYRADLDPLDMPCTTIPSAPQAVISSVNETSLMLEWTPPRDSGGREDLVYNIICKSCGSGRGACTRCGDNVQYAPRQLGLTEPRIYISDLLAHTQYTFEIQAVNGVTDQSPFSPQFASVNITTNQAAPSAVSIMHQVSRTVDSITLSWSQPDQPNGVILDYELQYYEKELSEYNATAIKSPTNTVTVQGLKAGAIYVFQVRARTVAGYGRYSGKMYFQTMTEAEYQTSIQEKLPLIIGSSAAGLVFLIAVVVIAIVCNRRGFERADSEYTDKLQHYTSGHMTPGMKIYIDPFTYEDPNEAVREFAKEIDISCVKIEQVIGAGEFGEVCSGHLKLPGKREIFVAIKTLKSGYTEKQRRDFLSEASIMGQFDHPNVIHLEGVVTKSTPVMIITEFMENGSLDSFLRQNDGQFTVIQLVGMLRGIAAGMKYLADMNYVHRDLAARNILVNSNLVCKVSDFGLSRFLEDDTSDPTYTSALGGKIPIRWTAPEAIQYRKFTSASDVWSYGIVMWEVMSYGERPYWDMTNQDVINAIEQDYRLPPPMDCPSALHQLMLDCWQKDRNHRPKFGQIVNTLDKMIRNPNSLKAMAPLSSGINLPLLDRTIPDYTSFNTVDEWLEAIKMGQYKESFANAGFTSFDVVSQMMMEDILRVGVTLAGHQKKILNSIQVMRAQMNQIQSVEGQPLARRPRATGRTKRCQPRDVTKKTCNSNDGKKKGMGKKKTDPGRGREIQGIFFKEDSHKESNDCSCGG

MERTK = MERTK (UniProt Q12866); assay: as above
MERTK, sequence (Q12866 whole entry, looked up): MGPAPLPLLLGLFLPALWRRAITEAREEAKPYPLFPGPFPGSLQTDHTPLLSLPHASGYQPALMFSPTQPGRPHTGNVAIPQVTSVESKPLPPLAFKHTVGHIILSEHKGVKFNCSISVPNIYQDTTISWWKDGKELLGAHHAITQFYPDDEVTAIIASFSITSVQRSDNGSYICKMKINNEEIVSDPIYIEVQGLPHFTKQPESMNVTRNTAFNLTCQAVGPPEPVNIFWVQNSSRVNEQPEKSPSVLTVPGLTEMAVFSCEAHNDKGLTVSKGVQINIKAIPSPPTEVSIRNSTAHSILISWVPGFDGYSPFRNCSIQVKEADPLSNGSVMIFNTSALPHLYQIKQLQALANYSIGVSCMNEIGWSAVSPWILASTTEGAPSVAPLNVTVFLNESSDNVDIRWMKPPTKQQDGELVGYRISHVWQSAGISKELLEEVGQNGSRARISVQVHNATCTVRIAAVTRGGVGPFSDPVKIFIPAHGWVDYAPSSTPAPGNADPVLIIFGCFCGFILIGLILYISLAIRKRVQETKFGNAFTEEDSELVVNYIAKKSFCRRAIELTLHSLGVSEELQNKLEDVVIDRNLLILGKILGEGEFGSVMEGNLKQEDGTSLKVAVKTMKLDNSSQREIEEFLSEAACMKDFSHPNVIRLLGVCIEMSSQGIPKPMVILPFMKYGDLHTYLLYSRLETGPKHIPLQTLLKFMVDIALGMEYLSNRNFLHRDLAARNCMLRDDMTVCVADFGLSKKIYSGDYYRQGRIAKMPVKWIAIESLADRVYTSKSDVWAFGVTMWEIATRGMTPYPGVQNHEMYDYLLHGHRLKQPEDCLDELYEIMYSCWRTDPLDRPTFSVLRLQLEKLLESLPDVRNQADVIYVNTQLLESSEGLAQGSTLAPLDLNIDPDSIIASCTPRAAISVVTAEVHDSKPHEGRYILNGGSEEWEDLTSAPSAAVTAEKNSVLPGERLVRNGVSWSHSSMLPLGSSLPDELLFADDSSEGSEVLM

AncSZ = assay: as above
Jak2 = Jak2 (UniProt O60674); assay: as above
c-Src = assay: as above
FGFR3 = FGFR3 (UniProt P22607); assay: as above
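For SH2 binding enrichment of the phosphorylated peptide, bacterial display in this document: peptide library displayed on the E. coli surface as eCPX fusions, selected cells deep-sequenced, score is each peptide's frequency after selection divided by its frequency in the input.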
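For phosphorylation enrichment, bacterial display in this document: 11-residue human phosphosite peptides and single-mutation variants displayed on the E. coli surface, counted by deep sequencing, each peptide's frequency after selection divided by its frequency in the unselected input library; frequency after pTyr selection over input frequency; kinase dosed for 20-30% of maximal phosphorylation in three min.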

Sequence | SH2 binding enrichment (c-Src SH2) | SH2 binding enrichment (Grb2 SH2) | SH2 binding enrichment (SHP2-C SH2) | phosphorylation enrichment (FGFR1) | phosphorylation enrichment (Fyn) | phosphorylation enrichment (c-Abl (mouse)) | phosphorylation enrichment (Fer (mouse)) | phosphorylation enrichment (Hck) | phosphorylation enrichment (EPHB1) | phosphorylation enrichment (Fes) | phosphorylation enrichment (EPHB2) | phosphorylation enrichment (MERTK) | phosphorylation enrichment (AncSZ) | phosphorylation enrichment (Jak2) | phosphorylation enrichment (c-Src) | phosphorylation enrichment (FGFR3)
DRLASYQDKVR [KRT12_Y139_L140Q] | 0.546 | 0.786 | 0.685 | 0.394 | 0.361 | 0.516 | 0.299 | 0.417 | 0.411 | 0.68 | 0.461 | 0.437 | 0.532 | 0.577 | 0.41 | 0.539
DSDTDYGSGFP [RNASEH2A_Y206_L202S_YF] | 0.494 | 0.705 | 0.697 | 0.418 | 0.429 | 0.755 | 0.492 | 0.566 | 0.545 | 1.01 | 0.557 | 0.455 | 1.1 | 0.905 | 0.494 | 0.605
DSEIRYLSADS [TTF1_Y476] | 0.633 | 0.887 | 0.914 | 0.546 | 0.526 | 0.727 | 0.551 | 0.458 | 0.489 | 0.933 | 0.547 | 0.461 | 0.964 | 0.868 | 0.51 | 0.709
DVLPEYKLQAP [KCNH2_Y388] | 0.508 | 1.02 | 0.625 | 0.48 | 0.53 | 0.693 | 0.427 | 0.519 | 0.548 | 0.861 | 0.557 | 0.432 | 0.911 | 0.659 | 0.405 | 0.728
EAGKVYLKAPM [CBFB_Y96] | 0.503 | 0.956 | 0.609 | 0.433 | 0.492 | 0.504 | 0.411 | 0.496 | 0.443 | 0.939 | 0.524 | 0.602 | 0.754 | 0.669 | 0.434 | 0.609

The next lines start with results.

SH2 binding enrichment (c-Src SH2) | SH2 binding enrichment (Grb2 SH2) | SH2 binding enrichment (SHP2-C SH2) | Sequence | phosphorylation enrichment (FGFR1) | phosphorylation enrichment (Fyn) | phosphorylation enrichment (c-Abl (mouse)) | phosphorylation enrichment (Fer (mouse)) | phosphorylation enrichment (Hck) | phosphorylation enrichment (EPHB1) | phosphorylation enrichment (Fes) | phosphorylation enrichment (EPHB2) | phosphorylation enrichment (MERTK) | phosphorylation enrichment (AncSZ) | phosphorylation enrichment (Jak2) | phosphorylation enrichment (c-Src) | phosphorylation enrichment (FGFR3)
0.503 | 0.792 | 0.595 | DRTGHYLCNAC [GATA1_Y223] | 0.349 | 0.389 | 0.575 | 0.408 | 0.489 | 0.389 | 0.769 | 0.676 | 0.499 | 0.691 | 0.885 | 0.469 | 0.449
0.499 | 0.705 | 0.667 | DSSIRYLQEIH [FGG_Y135_Y140H] | 0.384 | 0.388 | 0.524 | 0.33 | 0.356 | 0.378 | 0.667 | 0.402 | 0.369 | 0.597 | 0.561 | 0.347 | 0.509
1.57 | 0.842 | 31 | DVFRQYASLRG [GANAB_Y379_T383R] | 0.453 | 0.393 | 0.459 | 0.295 | 0.404 | 0.329 | 0.625 | 0.435 | 0.384 | 0.482 | 0.504 | 0.399 | 0.41
